This data set relates to ATP. Description: switch fluorescence ratio, 500 uM ATP over buffer (Cy3 cluster intensity, sum of 5 cycles each) (fold (ratio)); higher = stronger signal-on switching upon ATP binding; sequences stand for … in TCGTCGGCAGCGTCAGATGTGTATAAGAGACAGTTTTTTTTTTTTTTTTTTTTTTTTT…TC. To be noted: aptamer strand: ATP DNA aptamer (quencher-CACCTGGGGGAGTATTGCGGAGGAAGG + anchor), 100 nM annealed; ATP concentration: 500 uM. The gist of the method: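 For every switch-domain sequence, the fluorescence ratio is the mean of per-cluster values, each being summed target-cycle Cy3 intensity over summed buffer-cycle Cy3 intensity. Clusters outside 100-1000 RFU were excluded. On a modified Illumina MiSeq flow-cell, the Cy3-labelled switching-strand clusters were annealed to 100 nM quencher-labelled ATP aptamer, imaged in selection buffer and then after 15 min with 500 uM ATP at 22 °C. Five such cycles were run, with NaOH stripping and re-annealing between them.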

± gives the standard deviation of the averaged measurements.
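Further: ATP exposure 15 min at 22 °C before imaging.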

For TCCTGTTCCT, the switch fluorescence ratio worked out at 1.02 ± 0.062.

With TCCTTGACGA, the switch fluorescence ratio is 1.06 ± 0.013.

In the case of TCCTTGCTTT, the switch fluorescence ratio was 1.1 ± 0.025.

TCCTTGGGGT: the switch fluorescence ratio was determined as 1.73 ± 0.97.

Take TCCTTTGCGT: the switch fluorescence ratio was found to be 1.55 ± 0.39.

On to TCCTTTTAAT, for which the switch fluorescence ratio amounted to 1.045 ± 0.0012.

For TCCTTTTGT, the switch fluorescence ratio amounted to 1.02 ± 0.068.

Consider TCCTTTTGTT, for which the switch fluorescence ratio was 1.06 ± 0.15.

In the case of TCCTTTTTGC, the switch fluorescence ratio amounted to 1.07 ± 0.069.

Regarding TCCTTTTTGT, the switch fluorescence ratio was 1.41 ± 0.54.

Consider TCGAAAATCG, for which the switch fluorescence ratio came to 1 ± 0.049.

On to TCGAAAGAGA, for which the switch fluorescence ratio turned out to be 1.02 ± 0.025.

TCGAAAGCTT: the switch fluorescence ratio is 1.34 ± 0.42.

As for TCGAAAGTCT, the switch fluorescence ratio stood at 0.995 ± 0.012.

For the sequence TCGAAATCAC, the switch fluorescence ratio came out at 1.32 ± 0.046.

With TCGAACTCTT, the switch fluorescence ratio came out at 1.03 ± 0.021.

For TCGAACTGGG, the switch fluorescence ratio is 1.007 ± 0.0091.

In the case of TCGAAGTTGT, the switch fluorescence ratio was found to be 1.01 ± 0.022.

For TCGAATATTG, the switch fluorescence ratio came out at 0.9849 ± 0.004.

As for TCGAATGGGC, the switch fluorescence ratio came to 0.98 ± 0.037.

On to TCGAATGGGT, for which the switch fluorescence ratio amounted to 1.02 ± 0.013.

With TCGAATTCGC, the switch fluorescence ratio was 1.0071 ± 8.5e-05.

As for TCGACATCGG, the switch fluorescence ratio was 1.016 ± 0.0061.

With TCGACGCGCC, the switch fluorescence ratio is 5.12 ± 0.52.

As to TCGACGGGCG, the switch fluorescence ratio turned out to be 1.03 ± 0.02.

As for TCGACTATTT, the switch fluorescence ratio was 1.04 ± 0.046.

For the sequence TCGAGAAAGG, the switch fluorescence ratio turned out to be 0.98962 ± 0.00052.

Take TCGAGCCATA: the switch fluorescence ratio is 1.08 ± 0.046.

Turning to TCGAGCGCAC, the switch fluorescence ratio stood at 2.54 ± 0.34.

TCGAGCTGAA: the switch fluorescence ratio was determined as 1.018 ± 0.0016.

As for TCGAGGGGTC, the switch fluorescence ratio came to 1.06 ± 0.075.

Regarding TCGAGGGGTG, the switch fluorescence ratio is 1.01 ± 0.039.

Regarding TCGAGTCTTT, the switch fluorescence ratio amounted to 0.998 ± 0.015.

Take TCGAGTTTGT: the switch fluorescence ratio was 1.01 ± 0.022.

As for TCGAGTTTTT, the switch fluorescence ratio stood at 0.996 ± 0.02.

Regarding TCGATAGTTC, the switch fluorescence ratio was 1.03 ± 0.028.

Take TCGATCAACG: the switch fluorescence ratio was 0.9909 ± 0.0013.

With TCGATCTACT, the switch fluorescence ratio stood at 1.06 ± 0.024.

In the case of TCGATGATCG, the switch fluorescence ratio was 0.963 ± 0.046.

Turning to TCGATGATGG, the switch fluorescence ratio turned out to be 1.05 ± 0.013.

For the sequence TCGATTAGGG, the switch fluorescence ratio stood at 1.04 ± 0.017.

Turning to TCGATTATTT, the switch fluorescence ratio stood at 1.016 ± 0.0059.

For the sequence TCGATTGGCG, the switch fluorescence ratio worked out at 1.07 ± 0.1.

As for TCGCAAATTT, the switch fluorescence ratio was 1.3 ± 0.12.

With TCGCATGTCT, the switch fluorescence ratio is 1.11 ± 0.098.

TCGCATTCGT: the switch fluorescence ratio was found to be 1.25 ± 0.026.

As to TCGCATTGAG, the switch fluorescence ratio is 1.1 ± 0.011.

As for TCGCCAAATT, the switch fluorescence ratio amounted to 1.1 ± 0.21.

TCGCCATTGT: the switch fluorescence ratio was determined as 1.02 ± 0.03.

On to TCGCCGGGCG, for which the switch fluorescence ratio turned out to be 0.993 ± 0.0075.

Take TCGCCTGTTT: the switch fluorescence ratio is 1.003 ± 0.0036.

On to TCGCGATAAA, for which the switch fluorescence ratio was 1.06 ± 0.017.

For the sequence TCGCGCATTG, the switch fluorescence ratio amounted to 1.14 ± 0.13.

Take TCGCGCCTTG: the switch fluorescence ratio amounted to 1.01 ± 0.021.

As for TCGCGGGGGG, the switch fluorescence ratio is 0.976 ± 0.034.

For the sequence TCGCGTGGTA, the switch fluorescence ratio was found to be 0.989 ± 0.038.

On to TCGCGTTCGG, for which the switch fluorescence ratio was found to be 1.02 ± 0.013.

For the sequence TCGCTATAGC, the switch fluorescence ratio worked out at 1.02 ± 0.067.

On to TCGCTGAATA, for which the switch fluorescence ratio turned out to be 1.04 ± 0.052.

In the case of TCGCTGAGTG, the switch fluorescence ratio came to 1.08 ± 0.12.

With TCGCTTACAT, the switch fluorescence ratio is 1.0488 ± 0.00048.

As to TCGGAAATGT, the switch fluorescence ratio worked out at 1.12 ± 0.14.

TCGGAATGGG: the switch fluorescence ratio came out at 0.975 ± 0.017.

For TCGGACGGGT, the switch fluorescence ratio is 1.02 ± 0.025.

Turning to TCGGACTATA, the switch fluorescence ratio was determined as 1.06 ± 0.033.

On to TCGGACTGAG, for which the switch fluorescence ratio turned out to be 0.968 ± 0.029.

As for TCGGACTTTA, the switch fluorescence ratio stood at 0.998 ± 0.042.

TCGGAGAGTC: the switch fluorescence ratio turned out to be 1.26 ± 0.53.

Turning to TCGGAGGA, the switch fluorescence ratio is 1.03 ± 0.048.

On to TCGGAGTTTG, for which the switch fluorescence ratio came to 0.9963 ± 0.0024.

On to TCGGCCCGTT, for which the switch fluorescence ratio is 1.01 ± 0.018.

As to TCGGCCGGAA, the switch fluorescence ratio worked out at 1.08 ± 0.025.

Regarding TCGGCGGGGT, the switch fluorescence ratio amounted to 1.75 ± 1.3.

In the case of TCGGCGTTGA, the switch fluorescence ratio was determined as 0.992 ± 0.02.

Regarding TCGGCTAAAT, the switch fluorescence ratio worked out at 1.003 ± 0.0063.

Consider TCGGCTTTGA, for which the switch fluorescence ratio stood at 1.01 ± 0.03.

With TCGGGAATTG, the switch fluorescence ratio was determined as 1.04 ± 0.085.

With TCGGGCCGG, the switch fluorescence ratio turned out to be 0.994 ± 0.023.

As to TCGGGCCTGT, the switch fluorescence ratio turned out to be 1 ± 0.034.

On to TCGGGCTAGC, for which the switch fluorescence ratio was determined as 0.986 ± 0.012.

Turning to TCGGGGAGCG, the switch fluorescence ratio came to 0.949 ± 0.042.

Turning to TCGGGGCAGC, the switch fluorescence ratio worked out at 0.998 ± 0.042.

Turning to TCGGGGCGAA, the switch fluorescence ratio was determined as 1.85 ± 1.3.

On to TCGGGGCTAG, for which the switch fluorescence ratio came out at 0.989 ± 0.025.

In the case of TCGGGGGATG, the switch fluorescence ratio came to 0.987 ± 0.019.

For the sequence TCGGGGGATT, the switch fluorescence ratio stood at 0.966 ± 0.028.

In the case of TCGGGGGTGT, the switch fluorescence ratio is 1.02 ± 0.029.

In the case of TCGGGGGTTA, the switch fluorescence ratio stood at 1.01 ± 0.023.

As for TCGGGGGTTG, the switch fluorescence ratio was 0.996 ± 0.056.

Consider TCGGGGTACG, for which the switch fluorescence ratio came to 1.01 ± 0.015.

TCGGGGTTAT: the switch fluorescence ratio was determined as 1.04 ± 0.083.

Regarding TCGGGGTTCT, the switch fluorescence ratio was 1.01 ± 0.0064.

As to TCGGGGTTTG, the switch fluorescence ratio is 1 ± 0.016.

TCGGGTAAGA: the switch fluorescence ratio amounted to 1.04 ± 0.026.

TCGGGTACTT: the switch fluorescence ratio is 1.04 ± 0.055.

Regarding TCGGGTAGTT, the switch fluorescence ratio stood at 1.04 ± 0.055.

TCGGGTCTGT: the switch fluorescence ratio turned out to be 0.979 ± 0.025.

For TCGGGTGGTA, the switch fluorescence ratio is 1.05 ± 0.097.

With TCGGTAGGG, the switch fluorescence ratio came out at 0.9717 ± 0.003.

As for TCGGTAGGGA, the switch fluorescence ratio came to 0.96 ± 0.021.

TCGGTAGTTA: the switch fluorescence ratio was determined as 1.01 ± 0.047.

In the case of TCGGTATTGG, the switch fluorescence ratio is 1.09 ± 0.1.

Regarding TCGGTCGGGA, the switch fluorescence ratio came out at 1.022 ± 0.0017.

As to TCGGTCTTTT, the switch fluorescence ratio turned out to be 0.974 ± 0.029.

Consider TCGGTGATTG, for which the switch fluorescence ratio amounted to 0.991 ± 0.016.

Consider TCGGTGGGGT, for which the switch fluorescence ratio was determined as 0.982 ± 0.0061.

TCGGTGGGTG: the switch fluorescence ratio stood at 1.012 ± 0.0066.

TCGGTTAGTG: the switch fluorescence ratio stood at 0.991 ± 0.036.

Consider TCGGTTGGTG, for which the switch fluorescence ratio amounted to 0.969 ± 0.042.

For the sequence TCGGTTGTCC, the switch fluorescence ratio was 0.978 ± 0.018.

As to TCGGTTTTAA, the switch fluorescence ratio worked out at 1.01 ± 0.036.

On to TCGGTTTTTT, for which the switch fluorescence ratio came out at 1.01 ± 0.038.

Regarding TCGTAAACTT, the switch fluorescence ratio amounted to 1.025 ± 0.005.

Take TCGTAACTGT: the switch fluorescence ratio was found to be 1.03 ± 0.016.

In the case of TCGTAAGGGT, the switch fluorescence ratio was 1.18 ± 0.26.

With TCGTACACGT, the switch fluorescence ratio was 0.978 ± 0.015.

Take TCGTACAGTA: the switch fluorescence ratio worked out at 1.02 ± 0.029.

For TCGTACGTTG, the switch fluorescence ratio was 1.01 ± 0.022.

For TCGTACTTAT, the switch fluorescence ratio is 1.12 ± 0.18.

TCGTAGGCAT: the switch fluorescence ratio was 1.004 ± 0.0036.
